Values quoted from earlier work as cited in PMC8364556.

Target: IL-10R complex (Homo sapiens) (UniProt Q13651)
Sequence (Q13651 22-235, chain 1 of 2): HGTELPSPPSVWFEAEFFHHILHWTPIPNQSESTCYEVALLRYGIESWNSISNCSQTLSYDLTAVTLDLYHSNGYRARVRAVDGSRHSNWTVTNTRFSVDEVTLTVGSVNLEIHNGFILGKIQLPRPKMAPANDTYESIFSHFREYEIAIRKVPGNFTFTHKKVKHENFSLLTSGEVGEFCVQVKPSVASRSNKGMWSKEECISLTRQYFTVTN
Sequence (Q08334 20-220, chain 2 of 2, further chain): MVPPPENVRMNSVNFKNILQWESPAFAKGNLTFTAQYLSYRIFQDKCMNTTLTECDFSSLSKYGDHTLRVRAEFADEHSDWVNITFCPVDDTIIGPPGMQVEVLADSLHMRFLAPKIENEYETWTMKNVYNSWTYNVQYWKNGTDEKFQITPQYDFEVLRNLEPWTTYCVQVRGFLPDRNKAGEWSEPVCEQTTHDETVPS

Chain of IL-10 (P22301 19-178): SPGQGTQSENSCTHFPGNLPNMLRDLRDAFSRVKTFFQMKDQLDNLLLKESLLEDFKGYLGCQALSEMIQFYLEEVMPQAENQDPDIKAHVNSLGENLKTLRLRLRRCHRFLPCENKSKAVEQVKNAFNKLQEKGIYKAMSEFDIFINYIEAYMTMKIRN

**Q.** With IL-10 (from UniProt P22301) as the substance, how does the Kd read?
**A.** 0.56 nM
